The numbers were not newly measured in patent publication US20030232389A1, “Urokinase peptide structure mimetics” (priority 2000, published 2003), which cites them from elsewhere.

Positions of bridges follow the written chain, without caps; N, C: chain ends. Non-standard residues stand in square brackets, D forms with d. No end group written: not given here.

In this series the target is uPAR (uPA receptor) (Homo sapiens, UniProt Q03405). The note with it: cyclic disulfide peptide mimicking loop B of the uPA growth factor domain; value from German patent application 199 33 701.2.
Chain of uPAR (uPA receptor) (Q03405 23-305): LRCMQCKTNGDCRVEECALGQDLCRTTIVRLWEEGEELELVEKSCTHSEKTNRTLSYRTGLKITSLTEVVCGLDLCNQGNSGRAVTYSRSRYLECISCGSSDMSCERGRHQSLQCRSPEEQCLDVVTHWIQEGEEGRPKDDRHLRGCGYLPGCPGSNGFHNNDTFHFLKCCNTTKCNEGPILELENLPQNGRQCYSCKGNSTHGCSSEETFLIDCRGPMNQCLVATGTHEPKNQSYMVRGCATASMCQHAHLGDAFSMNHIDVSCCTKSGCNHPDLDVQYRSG

Regarding “cyclo[1,9] D-Cys-Asn-Lys-Tyr-Phe-Ser-Asn-Ile-Cys-Trp ([dC]NKYFSNICW; disulfide 1-9) [cyclo[21,29][D-Cys21Cys29]-uPA21-30]”, the IC50 (as a rule, the concentration at which inhibition is half-maximal) was 78 nM.
